Laboratory results taken from patent publication US20100278752A1.

Columns and labels:
Test in all cases: cell-based or functional assay
[1] = biological target: Cathepsin B (Homo sapiens (Human)) (UniProt P07858)
[2] = biological target: Cathepsin H (Homo sapiens (Human)) (UniProt P09668)
[3] = biological target: Cathepsin X/Z/P (Homo sapiens (Human)) (UniProt Q9UBR2)
Cathepsin X/Z/P (Homo sapiens (Human)), sequence (Q9UBR2 62-303 limits assumed, form in doubt): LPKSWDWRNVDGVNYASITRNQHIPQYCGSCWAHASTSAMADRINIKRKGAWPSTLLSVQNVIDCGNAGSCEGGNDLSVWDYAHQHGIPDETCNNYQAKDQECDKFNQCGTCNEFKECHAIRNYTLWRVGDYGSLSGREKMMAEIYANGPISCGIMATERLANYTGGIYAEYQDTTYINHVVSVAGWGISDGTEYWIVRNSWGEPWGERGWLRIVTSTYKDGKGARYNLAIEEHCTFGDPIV

Sialostatin L, sequence (Q8MVB6 20-133, tags or fused parts left off): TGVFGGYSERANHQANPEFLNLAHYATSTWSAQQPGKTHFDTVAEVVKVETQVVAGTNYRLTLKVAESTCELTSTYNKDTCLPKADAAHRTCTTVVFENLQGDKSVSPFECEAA
Cathepsin H (Homo sapiens (Human)), sequence (P09668 116-335 limits assumed, form in doubt): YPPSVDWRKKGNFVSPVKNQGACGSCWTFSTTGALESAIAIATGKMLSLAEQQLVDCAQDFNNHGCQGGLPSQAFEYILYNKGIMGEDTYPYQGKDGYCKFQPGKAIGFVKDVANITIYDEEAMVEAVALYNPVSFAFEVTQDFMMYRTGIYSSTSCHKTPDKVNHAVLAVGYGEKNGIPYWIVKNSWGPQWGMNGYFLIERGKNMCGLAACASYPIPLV

Sialostatin L (from UniProt Q8MVB6 20-133)
IC50 (inhibitor concentration at which 50% inhibition of enzymatic activity is achieved) [1]: > 10 µM
IC50 (inhibitor concentration at which 50% inhibition of enzymatic activity is achieved) [2]: > 10 µM

Sialostatin L2 (from UniProt B7PKZ1 19-132)
IC50 (inhibitor concentration at which 50% inhibition of enzymatic activity is achieved) [1]: > 10 µM
IC50 (inhibitor concentration at which 50% inhibition of enzymatic activity is achieved) [2]: > 10 µM
IC50 (inhibitor concentration at which 50% inhibition of enzymatic activity is achieved); 16 nM enzyme [3]: > 10 µM
